The source of these data is patent US20240141039A1 (AGENUS, published 2024).

Like-named read-outs stand apart in the source and are kept apart here.

As usually defined, the EC50 (read off the curve) is the concentration needed to bring the measured effect to its halfway point. For orientation: Kd means the free concentration of one partner at which half of the binding sites on the other are occupied at equilibrium, for simple one-to-one binding. One may read the koff as the first-order rate constant of dissociation. Broadly, the kon is the second-order rate constant of association. Usually EC50 stands for the concentration at which the effect is half-maximal.

In experiment [1] the target is T1, wild type full-length cynomolgus monkey TIGIT expressed on CHO cells (cynomolgus monkey, UniProt A0A7N9I9V4 89-312).
T1 construct: whole, on cells; also called cynomolgus TIGIT-CHO cells
Nature of the experiment: flow cytometry on CHO cells expressing cynomolgus TIGIT, PE anti-human IgG Fc detection. On the technique in general: Flow cytometry measures light scatter and fluorescence of single cells or particles in a stream.

In experiment [2] the target is T2, full-length ECD of human TIGIT (His-tagged) (human).
T2 construct: also called His-tagged human TIGIT; human TIGIT extracellular domain
T2 chain: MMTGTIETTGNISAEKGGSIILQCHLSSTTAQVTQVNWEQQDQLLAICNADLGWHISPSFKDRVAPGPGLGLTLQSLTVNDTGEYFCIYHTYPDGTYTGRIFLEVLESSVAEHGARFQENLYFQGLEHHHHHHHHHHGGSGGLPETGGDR
Briefly: SPR Biacore T200, Protein A capture, 1:1 model, experiment #1. The procedure:
Briefly, surface plasmon resonance experiments were performed using a Biacore T200 instrument, and the association rate (kₐ), dissociation rate (kd), and dissociation constant (KD) were calculated from each experiment using a 1:1 binding model with Biacore T200 Evaluation Software.
Multispecific molecules were captured using a 30-sec injection at a flow rate of 10 μl/min to reach about 1000 resonance units (RUs). […] The sensor chip was regenerated between cycles with two 30-sec injections of 10 mM glycine, pH 1.5. Sensorgrams were evaluated and fit to a simple Langmuir 1:1 interaction model using the global data analysis option of BIAevaluation 3.0 software. Data quality was verified by visually inspecting deviations and curve fitting, and by evaluating the parameters of Rₘₐₓ, Chi2, and Tc.
On the technique in general: Surface plasmon resonance follows binding to a sensor surface in real time, without labels.

In experiment [3] the target is T1, wild type full-length cynomolgus monkey …. Briefly: flow cytometry, blocking of human CD155-Fc-PE binding to CHO cells expressing cynomolgus TIGIT.
Experiment [4] has as its target T3, full-length human FcγRIIIa variant F/F expressed on CHO cells (human, UniProt P08637 17-254).
T3 construct: whole, on cells; also called human FcγRIIIa-CHO (variant F/F); human FcγRIIIa (F/F) CHO cells
Briefly: flow cytometry, human FcγRIIIa (F/F) CHO cells, 1 experiment. The procedure: (§1) For the antibody binding assay, a frozen aliquot of human FcγRIIIa-CHO cells (variant V/V or variant F/F) was thawed at 37° C. and then transferred to a tube containing DPBS supplemented with 0.5% Bovine Serum Albumin and 0.05% Sodium Azide (FACS Buffer). Cells were centrifuged at 300 g for five minutes. The supernatant was discarded, and cells resuspended in FACS buffer were seeded in a 96-well U-bottom tissue culture plate at a density of 2×10⁵ cells per well in 50 μL. In a separate microplate, a 2× concentrated intermediate stock of each antibody was prepared. Antibodies were serially diluted 1-to-4 in FACS buffer. A total of 11 working dilutions ranging from 60 μg/mL to 0.000057 μg/mL were prepared. Fifty microlitres of each dilution were then transferred to the microplate containing human FcγRIIIa-CHO (variant V/V or variant F/F) cells. The cells were then incubated for 45 minutes at 4° C. […] After a 30-minute incubation on ice, the cells were washed twice with cold FACS Buffer, and the cells were analyzed by flow cytometry (BD LSR Fortessa Flow Cytometer). The data were analyzed using the FlowJo software by sequentially gating the FSC-A vs. SSC-A, and SSC-H vs. SSC-A. Mean fluorescence intensity (MFI) values for PE were calculated, and the data were plotted by GraphPad Prism software.

Experiment [5] addresses T1, wild type full-length cynomolgus monkey …. Nature of the experiment: flow cytometry, blocking of human CD155-Fc-PE binding to CHO cells expressing cynomolgus TIGIT. The procedure: A 4× concentrated intermediate stock of each multispecific molecule was prepared in a microplate. Antibodies were serially diluted 1-to-4 in FACS buffer. […] Lastly, 25 μL of cynomolgus TIGIT-CHO cells, prepared as described above, were added to each well. After a 30-minute incubation on ice, the cells were washed twice with cold FACS Buffer, and the cells were analyzed by flow cytometry (BD LSR Fortessa Flow Cytometer). The data were analyzed using the FlowJo software by sequentially gating on the FSC-A vs. SSC-A and SSC-H vs. SSC-A. Mean fluorescence intensity (MFI) values for PE were calculated, and the data were plotted by GraphPad Prism software and analyzed as described above.
The source holds these as a separate data set.

Experiment [6] concerns the target T4, wild type full-length human TIGIT expressed on cells (human, UniProt Q495A1 22-244).
T4 construct: whole, on cells; also called human TIGIT-CHO; human TIGIT CHO cells
T4 sequence (looked up): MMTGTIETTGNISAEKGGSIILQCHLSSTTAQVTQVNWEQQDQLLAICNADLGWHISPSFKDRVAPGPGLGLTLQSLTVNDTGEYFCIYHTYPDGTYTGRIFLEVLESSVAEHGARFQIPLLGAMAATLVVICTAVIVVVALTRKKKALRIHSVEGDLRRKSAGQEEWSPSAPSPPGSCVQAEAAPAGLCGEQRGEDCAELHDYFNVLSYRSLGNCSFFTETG
Nature of the experiment: flow cytometry, human TIGIT CHO cells, geomean of 2 experiments. The procedure: The ability of anti-TIGIT antibodies to bind to wild type human TIGIT expressed on the surface of CHO cells was assessed. Briefly, CHO cells were transfected with a vector encoding wild type human TIGIT (human TIGIT-CHO), and clones stably expressing TIGIT were selected.
as §1, with “TIGIT-CHO” for “FcγRIIIa-CHO”, “cells” for “cells (variant V/V or variant F/F)”, “2×10⁵” left out, “prepared.” for “prepared. Fifty microlitres of each dilution were then transferred to the microplate containing human FcγRIIIa-CHO (variant V/V or variant F/F) cells. The cells were then incubated for 45 minutes at 4° C.”

T1 sequence (A0A7N9I9V4 entry or part of it): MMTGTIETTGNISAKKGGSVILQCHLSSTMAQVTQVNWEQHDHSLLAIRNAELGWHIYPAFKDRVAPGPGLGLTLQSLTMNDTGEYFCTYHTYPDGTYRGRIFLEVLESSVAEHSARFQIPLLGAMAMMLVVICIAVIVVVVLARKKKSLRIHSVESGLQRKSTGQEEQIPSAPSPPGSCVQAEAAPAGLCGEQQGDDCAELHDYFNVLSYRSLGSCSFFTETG
T3 sequence (P08637 17-254, change not shown): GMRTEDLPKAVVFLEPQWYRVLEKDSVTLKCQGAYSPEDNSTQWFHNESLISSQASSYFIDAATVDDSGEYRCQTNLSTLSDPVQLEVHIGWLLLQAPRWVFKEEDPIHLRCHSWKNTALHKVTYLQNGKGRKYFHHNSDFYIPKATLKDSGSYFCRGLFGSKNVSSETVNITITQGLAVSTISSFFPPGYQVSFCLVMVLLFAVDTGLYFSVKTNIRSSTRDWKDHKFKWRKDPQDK

B1: anti-TIGIT×CD96 multispecific molecule BA127 (bispecific antibody, human IgG1, kappa, lambda)
heavy 1: QVQLVQSGAEVKKPGASVKVSCKASGYTFTTYALHWVRQAPGQRLEWMGWINTGSGDTKYSQKFQGRVTITRDTSASTAYMELSSLRSEDTAVYYCARSLGVYYGMDVWGQGTLVTVSSASTKGPSVFPLAPSSKSTSGGTAALGCLVKDYFPEPVTVSWNSGALTSGVHTFPAVLQSSGLYSLSSVVTVPSSSLGTQTYICNVNHKPSNTKVDKRVEPKSCDKTHTCPPCPAPELLGGPDVFLFPPKPKDTLMISRTPEVTCVVVDVSHEDPEVKFNWYVDGVEVHNAKTKPREEQYNSTYRVVSVLTVLHQDWLNGKEYKCKVSNKALPAPIEKTISKAKGQPREPQVYTLPPSREEMTKNQVSLSCAVKGFYPSDIAVEWESNGQPENNYKTTPPVLDSDGSFFLVSKLTVDKSRWQQGNVFSCSVMHEALHNHYTQKSLSLSPG
light 1: not shown
heavy 2: EVQLVQSGAEVKKPGSSVKVSCKASGYTFASYGISWVRQAPGQGLEWMGGITPFFNRVDVAEKFQGRVTITADKSTSTAYIELSSLRSEDTAVYYCARDLRRGGVGDAFDIWGRGTLVTVSSASTKGPSVFPLAPSSKSTSGGTAALGCLVKDYFPEPVTVSWNSGALTSGVHTFPAVLQSSGLYSLSSVVTVPSSSLGTQTYICNVNHKPSNTKVDKRVEPKSCDKTHTCPPCPAPELLGGPDVFLFPPKPKDTLMISRTPEVTCVVVDVSHEDPEVKFNWYVDGVEVHNAKTKPREEQYNSTYRVVSVLTVLHQDWLNGKEYKCKVSNKALPLPEEKTISKAKGQPREPQVYTLPPSREEMTKNQVSLWCLVKGFYPSDIAVEWESNGQPENNYKTTPPVLDSDGSFFLYSKLTVDKSRWQQGNVFSCSVMHEALHNHYTQKSLSLSPG
light 2: QSALTQPRSVSGSPGQSVTISCTGTSPDVGSHAYRSWYQQHPGKAPKLMIYEVSYRPSGVSNRFSGSKSGNTASLTISGLQAEDEADYYCSSYPPSSATVFGAGTKLTVLGQPKAAPSVTLFPPSSEELQANKATLVCLISDFYPGAVTVAWKADSSPVKAGVETTTPSKQSNNKYAASSYLSLTPEQWKSHRSYSCQVTHEGSTVEKTVAPTEC
notes: Anti-CD96 arm = BA139, anti-TIGIT arm = BA150; copies: 1 + 1 + 1 + 1
As to B1, the “EC50 (read off the curve)” value in experiment [1] is around 0.2 µg/mL. In experiment [2], the affinity, expressed as Kd, was 584 pM; the koff came to 0.000356 s⁻¹; the kon amounted to 610000 M⁻¹ s⁻¹. Moreover, in experiment [3], the “IC50 (read off the curve)” value was around 3 µg/mL.

B2: anti-TIGIT monospecific antibody BA148 (antibody, human IgG1, lambda)
heavy: EVQLVQSGAEVKKPGSSVKVSCKASGYTFASYGISWVRQAPGQGLEWMGGITPFFNRVDVAEKFQGRVTITADKSTSTAYIELSSLRSEDTAVYYCARDLRRGGVGDAFDIWGRGTLVTVSSASTKGPSVFPLAPSSKSTSGGTAALGCLVKDYFPEPVTVSWNSGALTSGVHTFPAVLQSSGLYSLSSVVTVPSSSLGTQTYICNVNHKPSNTKVDKRVEPKSCDKTHTCPPCPAPELLGGPDVFLFPPKPKDTLMISRTPEVTCVVVDVSHEDPEVKFNWYVDGVEVHNAKTKPREEQYNSTYRVVSVLTVLHQDWLNGKEYKCKVSNKALPLPEEKTISKAKGQPREPQVYTLPPSREEMTKNQVSLTCLVKGFYPSDIAVEWESNGQPENNYKTTPPVLDSDGSFFLYSKLTVDKSRWQQGNVFSCSVMHEALHNHYTQKSLSLSPGK
light: B1 light 2
notes: IgG1; also called anti-TIGIT IgG1 antibody BA148
Consider B2, for which the EC50 in experiment [4] turned out to be 0.00262 µg/mL; in experiment [6], 0.0082 µg/mL. Moreover, the “IC50 (read off the curve)” value in experiment [5] is around 0.2 µg/mL.
